Assay results as given in publication PMC4786644, “The HMGB1 protein induces a metabolic type of tumour cell death by blocking aerobic respiration” (Nature Communications, 2016).

Molecular target: T1, human pyruvate kinase isoform M2 (PK M2) (human, UniProt P14618-1 1-531)
T1 construct: Pyruvate kinase isoform M2, human; used at 2 uM in solution
Test: ultrafiltration; equimolar HMGB1 and PK M2 (2 uM each) mixed in 300 ul, filtrated (14000 g, 4 C) to 15 ul in an Amicon Ultra 0.5 ml 30 k device; filtrate and retentate analysed by Western blot; HMGB1 and PKM2 also analysed alone
Conditions: both partners purified

T1 sequence (P14618 whole entry, canonical isoform): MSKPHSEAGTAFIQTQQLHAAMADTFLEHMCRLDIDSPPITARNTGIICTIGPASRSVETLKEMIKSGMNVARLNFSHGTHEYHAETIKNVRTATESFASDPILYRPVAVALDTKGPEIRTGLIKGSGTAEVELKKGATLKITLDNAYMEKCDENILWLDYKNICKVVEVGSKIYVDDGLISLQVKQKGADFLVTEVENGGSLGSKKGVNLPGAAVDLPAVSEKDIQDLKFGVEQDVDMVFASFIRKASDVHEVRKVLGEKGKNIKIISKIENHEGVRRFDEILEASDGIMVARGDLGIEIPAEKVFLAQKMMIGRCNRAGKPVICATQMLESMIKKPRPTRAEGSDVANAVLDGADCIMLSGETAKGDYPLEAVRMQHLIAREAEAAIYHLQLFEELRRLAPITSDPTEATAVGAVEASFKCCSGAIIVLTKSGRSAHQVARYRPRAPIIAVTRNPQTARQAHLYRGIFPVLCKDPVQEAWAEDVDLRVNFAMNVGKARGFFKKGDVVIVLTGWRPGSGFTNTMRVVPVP

- binding result: binds
B1: recombinant human HMGB1 protein (high-mobility group box 1) (natural protein, UniProt P09429 1-215, looked up)
chain: MGKGDPKKPRGKMSSYAFFVQTCREEHKKKHPDASVNFSEFSKKCSERWKTMSAKEKGKFEDMAKADKARYEREMKTYIPPKGETKKKFKDPNAPKRPPSAFFLFCSEYRPKIKGEHPGLSIGDVAKKLGEMWNNTAADDKQPYEKKAAKLKEKYEKDIAAYRAKGKPDAAKKGVVKAEKSKKKKEEEEDEEDEEDEEEEEDEEDEDEEEDDDDE
notes: High-mobility group box 1 protein, human, recombinant; the only recombinant human HMGB1 named is from Sigma-Aldrich; also called rhHMGB1; source: bought: Sigma-Aldrich (recombinant human HMGB1; human HMGB1 protein produced in E. coli)
